Measured values taken from the supplement of paper PMC7125110.
± gives the standard error. Variants at the floor of the assay were thinned out.

B1: glmS ribozyme (parent)
chain: AUAAAAGCGCCAGAACUACAGAAAUGUAGUUGACGAGGAGGAGGUUUAUCGAAUUUUCGGCGGAUGCCUCCAAA

Tests used:
Conditions in all cases: with glucosamine-6-phosphate
glucosamine-6-phosphate [1] = variants of: B1; assay: self-cleavage kobs at 40 uM GlcN6P; higher = faster cleavage; RNA array
Procedure, shortened: (§1)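 Tracking of barcoded ribozyme variants used a hybridised Cy3 probe at 37 °C, after in situ transcription by E. coli RNA polymerase on sequenced MiSeq chips. The flowed solution held 40 μM to 10 mM glucosamine-6-phosphate in HEPES/KCl/Mg(OAc)2 buffer, and imaging ran over ~14 h. kobs was taken from exponential decay fits of normalised per-tile medians, and kcat and KM from weighted Michaelis–Menten fits.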

glucosamine-6-phosphate [2] = variants of: B1; assay: self-cleavage kobs at 160 uM GlcN6P; higher = faster cleavage; RNA array
Procedure, shortened: as §1

glucosamine-6-phosphate [3] = variants of: B1; assay: self-cleavage kobs at 10000 uM GlcN6P; higher = faster cleavage; RNA array
Procedure, shortened: as §1

glucosamine-6-phosphate [4] = variants of: B1; assay: self-cleavage kobs at 2500 uM GlcN6P; higher = faster cleavage; RNA array
Procedure, shortened: as §1

glucosamine-6-phosphate [5] = variants of: B1; assay: self-cleavage kobs at 640 uM GlcN6P; higher = faster cleavage; RNA array
Procedure, shortened: as §1

Row | Variant | self-cleavage kobs at 40 uM GlcN6P (glucosamine-6-phosphate [1]) | self-cleavage kobs at 160 uM GlcN6P (glucosamine-6-phosphate [2]) | self-cleavage kobs at 10000 uM GlcN6P (glucosamine-6-phosphate [3]) | self-cleavage kobs at 2500 uM GlcN6P (glucosamine-6-phosphate [4]) | self-cleavage kobs at 640 uM GlcN6P (glucosamine-6-phosphate [5])
1 | AUAAAAGCGCCACAACUACAGAAAUGUAGUUGACCAGGUGGAGGUUUAUCGAAUUUUCGGCGGAUGCCUCCAAA [G13C G35C A39U] | < 1e-05 s⁻¹ |  |  |  | 
2 | AUAAAAGCGCCACAACUACAGAAAUGUAGUUGACGAGGAGGAGGUUUAUCGAAUUUUCGCCGGAUGCCUCCAAA [G13C G60C] | < 1e-05 s⁻¹ | < 1e-05 s⁻¹ | < 1e-05 s⁻¹ |  | 
3 | AUAAAAGCGCCAAAACUACAGAAAUGUAGUCGACGUGGAGGAGGUUUAUCGAAUUUUAGCCAGAUGGCUCCAAA [G13A U31C A36U C58A G60C G62A C67G] | 6.61e-05 ± 3.2e-05 s⁻¹ |  |  | 0.000425 ± 0.00017 s⁻¹ | 
4 | AUAAAAGCGCCACAACUACAGAAAUGUAGUAGACGAGGAGGAGGUUUAUCAAAUUUUCGGCGGAUGCCUCCAAA [G13C U31A G51A] | < 1e-05 s⁻¹ |  |  |  | 
5 | AUAAAAGCGCCACAACUACAGAAAUGUAGUUGACUAGGAGGAGGUUUAUCGAAUUUUCGGCGGAUGCCUCCAAA [G13C G35U] | < 1e-05 s⁻¹ | < 1e-05 s⁻¹ | < 1e-05 s⁻¹ |  | 
6 | AUAAAAGCGCCACAACUACAGAAAUGUAGUUGACAAGGGGGAGGUUUAUCGACUUCUCGGCGCAUGCCUCCAAA [G13C G35A A39G A53C U56C G63C] | < 1e-05 s⁻¹ |  | < 1e-05 s⁻¹ | < 1e-05 s⁻¹ | < 1e-05 s⁻¹
7 | AUAAAAGCGCCAUUACUACAGAAAUGUAGCUGCCGAGGAGGAGGUUUAUCGAAUUUUCGGCGGAUGCCUCAAAA [G13U A14U U30C A33C C71A] | < 1e-05 s⁻¹ |  | < 1e-05 s⁻¹ |  | 
8 | AUAAAAGCGCCAUAAGUACAGAAAUGUAGUUGACGAGGAGGAGGUUUAUCGAAUUUUCGGCGGUUGGCUCCAAA [G13U C16G A64U C67G] | < 1e-05 s⁻¹ |  | < 1e-05 s⁻¹ |  | 
9 | AUAAAAGCGCCACAACUACAGAAAUGUAGUUGACGAGGAGGAGGUUUUUCGAAUUUUCGGCGGAUGCCUCCAAA [G13C A48U] | < 1e-05 s⁻¹ |  | < 1e-05 s⁻¹ | < 1e-05 s⁻¹ | 
10 | AUAAAAGCGCCACAACUACAGAAAUGUAGUUGCCGAGGAGUAGGUUUAUCGAAUUUUCGGCGGAUGCCUCCAAA [G13C A33C G41U] | < 1e-05 s⁻¹ | < 1e-05 s⁻¹ | < 1e-05 s⁻¹ | < 1e-05 s⁻¹ | < 1e-05 s⁻¹
11 | AUAAAAGCGCCACAACUACAGAAAUGUAGUUGACGGGGAGGAGGUUUAUCGAAUUUUCGGCGGAUGCCUCCAAA [G13C A36G] | < 1e-05 s⁻¹ | < 1e-05 s⁻¹ | < 1e-05 s⁻¹ |  | 
12 | AUAAAAGCGCCACAACUACAGAAAUGUAGUUGACGAGGAGGAGGUUUAUCGAAUUUUCGGUGGAUGCCUCCAAA [G13C C61U] | < 1e-05 s⁻¹ | < 1e-05 s⁻¹ |  | < 1e-05 s⁻¹ | < 1e-05 s⁻¹
13 | AUAAAAGCGCCAUAACUACAGAAAUGUAGUUGACGAGGAGGAGGUUUAUGGAAUUUUCGGCGGAUGACUCCAAA [G13U C50G C67A] | 0.000194 ± 4.6e-05 s⁻¹ | 0.000278 ± 4.6e-05 s⁻¹ | 0.000101 ± 2.5e-05 s⁻¹ | 0.000138 ± 2.2e-05 s⁻¹ | 
14 | AUAAAAGCGCCACAACUACAGAAAUGUAGUUGACGAGGAGGAGGUUUAUCGAAUUUUCGGCGGAGGCCUCCAAA [G13C U65G] | < 1e-05 s⁻¹ | < 1e-05 s⁻¹ |  | < 1e-05 s⁻¹ | < 1e-05 s⁻¹
15 | AUAAAAGCGCCACAACUACAGAAAUGUAGUUGACGAGGAGGAGGUUUAUCGCAUUUUCGGCUGAUGCCUCCAAA [G13C A52C G62U] | < 1e-05 s⁻¹ |  | < 1e-05 s⁻¹ |  | 
16 | AUAAAAGCGCCAUAACUACAGAAAUGUAGUUGGCGAGGAGGAGGUUUAUCGAAUUUUCGGCGGAUGCCUCCAAA [G13U A33G] | < 1e-05 s⁻¹ | < 1e-05 s⁻¹ | < 1e-05 s⁻¹ | < 1e-05 s⁻¹ | < 1e-05 s⁻¹
17 | AUAAAAGCGCCAAAACUACAGAAAUGUAGUAGACGAGGAGGAGGUUUAUCGAAUUUUCCGCGGAUGCCUACAAA [G13A U31A G59C C70A] | < 1e-05 s⁻¹ |  |  |  | 
18 | AUAAAAGCGCCACAACUACAGAAAUGUAGUUGACGAGGAGGAGGUUUAUCCAAUUUUCGGCGGAUGCCUCCAAA [G13C G51C] | < 1e-05 s⁻¹ |  | < 1e-05 s⁻¹ | < 1e-05 s⁻¹ | < 1e-05 s⁻¹
19 | AUAAAAGCGCCACAACUACAGAAAUGUAGUUGACGAGGAGGAGGUUUAUCGAAUUUUCGGCGGCUGCCUCCAAA [G13C A64C] | < 1e-05 s⁻¹ | < 1e-05 s⁻¹ | < 1e-05 s⁻¹ | < 1e-05 s⁻¹ | 
20 | AUAAAAGCGCCAUAACUACAGAAAUGUAGUUGACGUGGAGGAGGUUUGUCGAAUCUUCGGCGGAUGCGUUCAAA [G13U A36U A48G U55C C68G C70U] | 0.0002 ± 6.4e-05 s⁻¹ |  | 0.000527 ± 0.00022 s⁻¹ |  | 
21 | AUAAAAGCGCCAUCACUACAGAAAUGUAGUUGACUAGGAGGAGGUUUAUCGAAUUUUCCGCGGAUGCCUCCAAA [G13U A14C G35U G59C] | < 1e-05 s⁻¹ |  |  |  | 
22 | AUAAAAGCGCCACAACUACAGAAAUGUAGUUGACGAGGAGGAGGUUUAUCGCAUUUUCGGCGGAUGCCUCCAAA [G13C A52C] | < 1e-05 s⁻¹ |  |  | < 1e-05 s⁻¹ | < 1e-05 s⁻¹
23 | AUAAAAGCGCCACAACUACAGAAAUGUAGUUGACGAGGAGGAGGUUUAUCGUAUUUUCGGCGGAUGCCUCCAAA [G13C A52U] | < 1e-05 s⁻¹ | < 1e-05 s⁻¹ | < 1e-05 s⁻¹ |  | < 1e-05 s⁻¹
24 | AUAAAAGCGCCAUAACUACAGAAAUGUAGUUGACGAGGCGGAGAUUUAUCGAAUUUUCGGCGGAUGCCUCCAAA [G13U A39C G44A] | < 1e-05 s⁻¹ |  | < 1e-05 s⁻¹ |  | 
25 | AUAAAAGCGCCACAACUACAGAAAUGUAGUUGACUAGGAGUAAGUUUAUCGAAUUUUCGCCGGAUGCCUCCAAA [G13C G35U G41U G43A G60C] | < 1e-05 s⁻¹ |  |  |  | 
26 | AUAAAAGCGCCACAACUACAGAAAUGUAGUUGACGAGGAGGAGGCAUAUCGAAUUUUCGGCGGAUGCCUCCAAA [G13C U45C U46A] | < 1e-05 s⁻¹ | < 1e-05 s⁻¹ | < 1e-05 s⁻¹ |  | < 1e-05 s⁻¹
27 | AUAAAAGCGCCACAACUACAGAAAUGUAGUUGACGAGGCGGAGGUUGAUCGAAUUUUCGGCGGAUGCCUCCAAA [G13C A39C U47G] | < 1e-05 s⁻¹ | < 1e-05 s⁻¹ |  | < 1e-05 s⁻¹ | 
